# Data from EP2336188A1 (Sanofi-Aventis, dated 2011).
# Residue numbers refer to the chain shown, from its start. “And” between values parts separate entries of the source, which are not always exact repeats. Equal values may be shown once.
# T1: human GPVI on platelets (human, UniProt Q9HCN6 21-339)
# T1 sequence (looked up): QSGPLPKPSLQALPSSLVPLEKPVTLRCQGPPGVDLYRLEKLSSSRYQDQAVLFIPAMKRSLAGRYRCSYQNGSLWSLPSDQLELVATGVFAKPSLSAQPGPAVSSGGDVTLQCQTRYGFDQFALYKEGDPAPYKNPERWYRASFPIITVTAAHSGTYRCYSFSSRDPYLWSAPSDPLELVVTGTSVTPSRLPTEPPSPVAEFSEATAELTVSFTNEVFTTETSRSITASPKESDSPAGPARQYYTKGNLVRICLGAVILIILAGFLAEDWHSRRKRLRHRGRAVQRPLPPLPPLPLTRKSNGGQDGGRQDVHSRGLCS
# B1: humanized anti-GPVI Fab VL1 with VH2 (Fab, V domains shown)
# VH: QVQLQESGPGLVAPSQSLSITCTVSGFSLTGYGVNWVRQPPSRGLEWLGMIWGDGSTDYQSTLKSRLSISKDNSKSQVFLKMNSLTTDDTARYYCARDLPMDYWGQGTSVTVSS
# VL: DIQMTQSPSSLSASVGGRVTITCKASQDINKYIAWYQHKPGKGPSLLIHYTSTLQPGVPSRFSGSGSGRDYSFSISNLQPEDIATYYCLQYANLLTFGGGTKLEIKR
# B2: humanized anti-GPVI Fab VL3 with VH2 (Fab, V domains shown)
# VH: B1 VH
# VL: B1 VL with N93L
# B3: humanized anti-GPVI Fab VL1 with VH5 (Fab, V domains shown)
# VH: B1 VH with Y103E
# VL: B1 VL
# B4: humanized anti-GPVI Fab VL1 with VH3 (Fab, V domains shown)
# VH: B1 VH with Q1E, Q5L, Q16G, S42G, R43K, T86R, Q106L
# VL: B1 VL
# B5: humanized anti-GPVI Fab VL3 with VH4 (Fab, V domains shown)
# VH: B1 VH with G31Y
# VL: B1 VL with N93L
# B6: humanized anti-GPVI Fab VL2 with VH2 (Fab, V domains shown)
# VH: B1 VH
# VL: B1 VL with N93H
# B7: humanized anti-GPVI Fab VL1 with VH1 (Fab, V domains shown)
# VH: B1 VH with N73T
# VL: B1 VL
# B8: humanized anti-GPVI Fab VL1 with VH4 (Fab, V domains shown)
# VH: B1 VH with G31Y
# VL: B1 VL
# Biological target: T1, human GPVI on platelets
# Assay: cell-based or functional assay
row,IC50 for inhibition of collagen induced platelet aggregation (human platelet rich plasma),Binder
1,2.3 µg/mL and 2 µg/mL and 1.1 µg/mL,B1
2,1.9 µg/mL and 0.9 µg/mL and 2.1 µg/mL,B2
3,1.9 µg/mL and 2.3 µg/mL and 1.2 µg/mL,B3
4,1.5 µg/mL and 1.7 µg/mL,B4
5,1 µg/mL and 2.3 µg/mL and 2 µg/mL,B5
6,1.4 µg/mL and 2.4 µg/mL and 2.3 µg/mL,B6
7,1.5 µg/mL and 2.3 µg/mL,B7
8,1.6 µg/mL and 1.8 µg/mL and 1.2 µg/mL,B8
